We go through 1 substance from publication PMC3792889.

The experiment addresses Growth factor receptor protein binding protein 2 (Grb2), endogenous (mouse (endogenous in STHdhQ7/7, STHdhQ111/111 and Neuro2A cells)) (UniProt Q60631). In words: co-IP; extracts of Neuro2A cells transfected with 23Q or 145Q Httex1 GFP; precipitated with anti-Grb2 antibody and Protein A/G beads; blot with anti-GFP; densitometry, n=3.
UniProt Q60631, sequence (Q60631 whole entry): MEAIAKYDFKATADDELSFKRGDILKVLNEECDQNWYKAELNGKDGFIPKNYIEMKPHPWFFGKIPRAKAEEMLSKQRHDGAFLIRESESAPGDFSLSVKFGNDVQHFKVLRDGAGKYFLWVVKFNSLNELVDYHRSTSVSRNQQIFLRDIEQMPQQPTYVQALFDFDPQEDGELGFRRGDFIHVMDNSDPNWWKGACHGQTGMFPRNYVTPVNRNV

Turning to 145Q Htt exon1 GFP (domain or fragment), the fold precipitation against 23Q Httex1 GFP was found to be 2 fold.
